In patent publication US10208121B2, “Anti-Axl antagonistic antibodies” (BERGEN TEKNOLOGIOVERFORING AS, priority 2014, dated 2019):
Entries after “also recorded” stand apart in the source; their conditions may differ.

What was measured:
[1] = molecular target: T1, human Axl (rhAxl-Fc chimera) (Homo sapiens, UniProt P30530); assay: Biacore binding analysis on immobilized human Axl; details: 10 μg/mL, 25° C.
T1 construct: Soluble recombinant antigens corresponding to the extracellular domains of members of the human TAM receptor family; purchased R&D Systems 154-AL
Experimental: All binding experiments were performed using Biacore 3000 instrument (GE Healthcare) at 25° C. Soluble recombinant antigens corresponding to the extracellular domains of members of the human TAM receptor family, Axl (rhAxl-Fc chimera; R&D Systems, Cat. no. 154-AL), Mer (rhMer-Fc chimera; R&D Systems, Cat. no. 891-MR) and Tyro3 (rhTyro3/Dtk-Fc chimera; R&D Systems, Cat. no. 859-DK) were immobilized on the surface of CM5 sensor chip using amine coupling at the surface density of 393.0, 303.6 and 364.0 resonance units (RU), respectively. The Biacore run was performed in an automatic mode using Binding analysis wizard. Samples containing either MAb 10C9 or MAb 10G5 at concentration 10 μg/mL in HBS-EP buffer (GE Healthcare) were injected over the surfaces with immobilized antigens at flow rate of 30 μL/min for 3 min (association) followed by 5 min dissociation.
The binding experiments were performed using Biacore 3000 instrument (GE Healthcare) at 25° C. The soluble recombinant antigens corresponding to human Axl (rhAxl-Fc chimera; R&D Systems, Cat. no. 154-AL), mouse Axl (rmAxl-Fc chimera; R&D Systems, R&D Systems; Cat. no. 854-AX) and human Tyro3 (rhTyro3/Dtk-Fc chimera; R&D Systems, Cat. no. 859-DK) were immobilized on the surface of CM5 sensor chip using amine coupling at the surface density of 1,308.0, 2,115.9 and 1,429.0 RU, respectively. The Biacore runs were performed in an automatic mode using Binding analysis wizard.
The sample containing either MAb 10C9, MAb 10G5 or recombinant mouse (rm) Axl-ligand Gas6 (R&D Systems, Cat. no. 986-GS/CF) at concentration 10 μg/mL in HBS-EP buffer (GE Healthcare) was injected over the surfaces with immobilized antigens at flow rate of 30 μL/min for 3 min (association) followed by 5 min dissociation.
The sequence of Axl receptor from cynomolgus monkey (Macaca fascicularis; SEQ ID NO.43) was retrieved from WO2009062690A1. Based on the sequence, recombinant extracellular domain of cyno-Axl was generated by transient expression in CHO cells as a fusion protein with human Fc. The recombinant cyno-Axl-Fc was purified to homogeneity using Protein A-Sepharose (GE Healthcare). The binding experiments were performed using Biacore 3000 instrument (GE Healthcare) at 25° C. The soluble recombinant antigens corresponding to human Axl (rhAxl-Fc chimera; R&D Systems, Cat. no. 154-AL) and cyno-Axl were immobilized on the surface of CM5 sensor chip using amine coupling at the surface density of 775 and 880 RU, respectively. The Biacore runs were performed in an automatic mode using Binding analysis wizard.
The sample containing either MAb 10C9, MAb 10G5 or human Axl-specific MAb 5F11 (control) at concentration 10 μg/mL in HBS-EP buffer (GE Healthcare) was injected over the surfaces with immobilized antigens at flow rate of 30 μL/min for 3 min (association) followed by 5 min dissociation.
In addition, the Axl-binding properties of the chimeric antibodies c10C9 and c10G5 were tested using Biacore 3000 instrument (GE Healthcare) and a sensor chip CM5 coated with human Axl (rhAxl-Fc chimera; R&D Systems, Cat. no. 154-AL) at the surface density of 1,308.0 RU. The Biacore runs were performed in an automatic mode using Binding analysis wizard. The samples comprising either the chimeric antibodies c10C9 and c10G5 or their murine counterparts at concentration 10 μg/mL in HBS-EP buffer (GE Healthcare) were injected over the surfaces with immobilized antigens at flow rate of 30 μL/min for 3 min (association) followed by 5 min dissociation.

[2] = molecular target: T2, rhAxl-Fc chimera (recombinant human Axl) (Homo sapiens, UniProt P30530); assay: Biacore surface plasmon resonance kinetic affinity determination on immobilized rhAxl-Fc; format: binding; details: for association rate (kon): human Axl, Examples 5 and 13; for Off-rate (koff; s^−1) / On-rate (kon; M^−1s^−1): rhAxl immobilized on sensor chip, 25° C., 1:1 Langmuir binding model
T2 construct: Soluble recombinant antigens corresponding to the extracellular domains of members of the human TAM receptor family; purchased R&D Systems 154-AL
Experimental: (§1) Kinetic analysis of MAbs 10C9 and 10G5 interacting with rhAxl immobilized on the surface of the Biacore sensor chip. Overlay plots of sensograms for different antibody concentrations (1.3-666.7 nM for 10C9 and 0.3-166.7 nM for 10G5) are shown. The precise kinetic analysis was performed using BIA evaluation software and curve fitting according to 1:1 Langmuir binding model.
as §1, with “chimeric antibodies c10C9” for “MAbs 10C9”, “c10G5” for “10G5”, “c10C9” for “10C9”, “c10G5)” for “10G5)”
(§2) Affinity determination of anti-Axl antibodies 10C9 and 10G5 was performed at 25° C. by surface plasmon resonance measurements using Biacore 3000 instrument (GE Healthcare). As a solid antigen-coated surface, a sensor chip CM5 with immobilized rhAxl-Fc chimera (R&D Systems, Cat. no. 154-AL) at density 190 RU was used.
(§3) For the kinetics measurements, different concentrations of anti-Axl antibodies (from 0.3 to 666.7 nM) in HBS-EP buffer (Biacore, Cat. no. BR-1001-88) were injected at flow rate of 30 μL/min with 3 min injection time followed by 5 min dissociation (buffer alone). After each cycle, the surface was regenerated by 30 sec injection of a regeneration solution (10 mM HCl, 1 M NaCl) at flow rate 50 μL/min.
The kinetic association (on-rate, kon) and dissociation (off-rate, koff) rates were calculated using BIAevaluation software and 1:1 Langmuir binding model. The equilibrium dissociation constant (KD) was calculated as the koff/kon ratio. The half-life (t1/2) of the formed antibody-antigen complexes was calculated as the ln 2/koff ratio.
as §2, with “of the chimeric” for “of”, “c10C9” for “10C9”, “c10G5” for “10G5”
as §3, with “333.3” for “666.7”

Molecule | binding to human Axl [1] | binding to human Axl ([1]; listed as 1009) | association rate (kon) [2] [M⁻¹ s⁻¹] | Off-rate (koff; s^−1) ([2]; mouse MAbs) [s⁻¹] | On-rate (kon; M^−1s^−1) ([2]; mouse MAbs) [M⁻¹ s⁻¹] | Off-rate (koff; s^−1) ([2]; chimeric antibodies) [s⁻¹] | On-rate (kon; M^−1s^−1) ([2]; chimeric antibodies) [M⁻¹ s⁻¹]
10C9: mouse anti-Axl monoclonal antibody from hybridoma UT-10C9-B9, IgG2b; VH SEQ ID NO: 3, VL SEQ ID NO: 4 (antibody, listed as Mus musculus, V domains shown) VH: QVQLQQPGPELVKPGASVKISCKTSDYNFTRYYIHWVKQRPGQGLEWIGWIYPGTGDSKYNEKFKGRATLTADTSSSTAYMQLSSQTSEDSAVYFCARNGNYWYFDVWGAGTAVTVSS VL: DIVMTQAAPSGPVTPGESVSISCRSSKSLLHSNGNTYLYWFLQRPGQSPQLLIYRMSNLASGVPDRFSGSGSGTAFTLRISRVEAEDVGIYYCMQHREYPFTFGGGTKLEIK | specific binding; also recorded: strong and specific interaction | bind strongly | 1.61e+06 | 0.000289 | 1.61e+06 |  | 
10G5: mouse anti-Axl monoclonal antibody from hybridoma WR-10G5-E5, IgG1; VH SEQ ID NO: 21, VL SEQ ID NO: 22 (antibody, listed as Mus musculus, V domains shown) VH: QVQLQQSGAELVRPGASVKLSCKASGYSFTDFYINWVRQRPGQGLEWIARIFPGGDNTYYNEKFKGKATLTAEESSSTAYIQLSSLTSEDSAVYFCARRGLYYAMDYWGQGISVTVSS VL: DVLMTQTPLSLPVSLGDQASISCRSSQSLVHSNGIPYLHWYLQKPGQSPKLLIYRVSNRFSGVPDRFSGSGSGTDFTLKISRVEAEDLGVYFCSQGTHVPPTFGGGTKLEIK | bind strongly; also recorded: specific binding; also recorded: strong and specific interaction |  | 830000 | 0.000439 | 829000 |  | 
c10G5: chimeric (mouse variable/human constant) IgG1 variant of antibody 10G5 (antibody, left off: a dimerising Fc or GST, chimeric (mouse variable/human constant) IgG1 variant of antibody 10G5) heavy: QVQLQQSGAELVRPGASVKLSCKASGYSFTDFYINWVRQRPGQGLEWIARIFPGGDNTYYNEKFKGKATLTAEESSSTAYIQLSSLTSEDSAVYFCARRGLYYAMDYWGQGISVTVSS light: DVLMTQTPLSLPVSLGDQASISCRSSQSLVHSNGIPYLHWYLQKPGQSPKLLIYRVSNRFSGVPDRFSGSGSGTDFTLKISRVEAEDLGVYFCSQGTHVPPTFGGGTKLEIK | bind immobilized Axl with profiles very similar to the binding profiles of the corresponding mouse antibodies |  |  |  |  | 0.000169 | 1.64e+06
